We go through 4 molecules from publication PMC9482650, “Quantitative fragmentomics allow affinity mapping of interactomes” (Nature Communications, 2022).

Targets include MAGI2_5, Q86UL8; TJP1_2, Q07157; HTRA1, Q92743; IL16_3, Q14005; MAST1, Q9Y2H9; NOS1, P29475; NHERF4_2, Q86UT5; PICK1, Q9NRD5; DLG1_3, Q12959; AHNAK1, Q09666; PTPN3, P26045; DLG2_3, Q15700.
Common to all, as to experiment: holdup assay
Common to all, as to set-up: key: below the threshold = too weak to quantify, mostly under pKd 3.1 to 4
What all share (details): plain residues with an end cap or a label only (N-terminal biotin on a linker: ado-ado)

Another test has as its target T1, DLG3_1, Q92796.
T1 sequence (Q92796 125-227, limits assumed, looked up): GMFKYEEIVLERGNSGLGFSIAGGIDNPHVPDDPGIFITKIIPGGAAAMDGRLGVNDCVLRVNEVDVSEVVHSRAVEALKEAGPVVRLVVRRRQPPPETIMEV

In a further test the target is T2, TX1BP3, O14907.
T2 sequence (O14907 10-122, limits assumed, looked up): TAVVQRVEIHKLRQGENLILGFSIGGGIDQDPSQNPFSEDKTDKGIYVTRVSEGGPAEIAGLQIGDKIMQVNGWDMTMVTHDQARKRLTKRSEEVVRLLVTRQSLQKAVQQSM

The target of a further test is T3, MPDZ_12, O75970.
T3 sequence (O75970 1857-1958, limits assumed, looked up): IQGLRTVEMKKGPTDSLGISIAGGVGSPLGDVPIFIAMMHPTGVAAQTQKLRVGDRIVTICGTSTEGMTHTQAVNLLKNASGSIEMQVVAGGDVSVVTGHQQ

A further test deals with T4, PDZRN3_1, Q9UPQ7.
T4 sequence (Q9UPQ7 244-349, limits assumed, looked up): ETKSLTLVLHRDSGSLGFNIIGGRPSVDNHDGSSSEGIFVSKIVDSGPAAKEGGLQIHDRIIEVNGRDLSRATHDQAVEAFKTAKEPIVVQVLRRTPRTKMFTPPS

The target of another test is T5, NHERF3_4, Q5T2W1.
T5 sequence (Q5T2W1 373-468, limits assumed, looked up): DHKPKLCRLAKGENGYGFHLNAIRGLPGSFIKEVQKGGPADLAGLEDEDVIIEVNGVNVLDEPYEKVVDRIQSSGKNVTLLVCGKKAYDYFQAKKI

For a further test, the target named is T6, DFNB31_3, Q9P202.
T6 sequence (Q9P202 811-907, limits assumed, looked up): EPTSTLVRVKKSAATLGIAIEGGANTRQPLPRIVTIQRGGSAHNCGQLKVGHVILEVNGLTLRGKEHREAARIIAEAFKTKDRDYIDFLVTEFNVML

The next test concerns the target T7, MPDZ_10, O75970.
T7 sequence (O75970 1624-1722, limits assumed, looked up): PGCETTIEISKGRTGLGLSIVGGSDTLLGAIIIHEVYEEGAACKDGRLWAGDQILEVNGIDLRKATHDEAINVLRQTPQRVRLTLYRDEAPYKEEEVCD

A further test deals with T8, LRRC7, Q96NW7.
T8 sequence (Q96NW7 1440-1537, limits assumed, looked up): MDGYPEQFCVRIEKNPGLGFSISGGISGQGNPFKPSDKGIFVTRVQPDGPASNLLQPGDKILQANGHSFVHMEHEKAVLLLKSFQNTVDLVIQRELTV

For the next test, the target named is T9, LIN7A, O14910.
T9 sequence (O14910 103-200, limits assumed, looked up): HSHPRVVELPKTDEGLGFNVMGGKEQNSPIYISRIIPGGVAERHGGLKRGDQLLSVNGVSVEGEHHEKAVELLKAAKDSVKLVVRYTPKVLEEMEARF

Another test deals with T10, APBA3_1, O96018.
T10 sequence (O96018 389-490, limits assumed, looked up): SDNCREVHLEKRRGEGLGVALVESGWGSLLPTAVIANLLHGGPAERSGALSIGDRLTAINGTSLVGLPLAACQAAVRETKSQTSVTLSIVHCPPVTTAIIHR

The next test has as its target T11, MPDZ_5, O75970.
T11 sequence (O75970 695-796, limits assumed, looked up): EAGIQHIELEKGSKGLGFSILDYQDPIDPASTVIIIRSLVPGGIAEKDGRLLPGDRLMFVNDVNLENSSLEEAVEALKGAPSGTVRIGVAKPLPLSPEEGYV

The next test concerns the target T12, ARHGEF11, O15085.
T12 sequence (O15085 42-136, limits assumed, looked up): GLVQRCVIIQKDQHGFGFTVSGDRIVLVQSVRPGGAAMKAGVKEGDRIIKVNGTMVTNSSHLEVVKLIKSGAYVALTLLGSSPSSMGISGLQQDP

Sequence of IL16_3, Q14005 (Q14005 1107-1207): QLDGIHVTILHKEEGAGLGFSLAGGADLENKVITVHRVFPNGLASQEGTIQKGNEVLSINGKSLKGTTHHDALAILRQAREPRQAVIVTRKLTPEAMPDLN
Sequence of PICK1, Q9NRD5 (Q9NRD5 17-115): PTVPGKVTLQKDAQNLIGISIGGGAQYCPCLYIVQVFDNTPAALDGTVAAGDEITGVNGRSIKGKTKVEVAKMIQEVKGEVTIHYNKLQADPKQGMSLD
Sequence of MAST1, Q9Y2H9 (Q9Y2H9 962-1065): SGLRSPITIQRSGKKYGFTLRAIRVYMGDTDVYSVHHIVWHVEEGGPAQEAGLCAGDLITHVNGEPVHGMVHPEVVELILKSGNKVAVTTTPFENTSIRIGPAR
Sequence of TJP1_2, Q07157 (Q07157 181-274): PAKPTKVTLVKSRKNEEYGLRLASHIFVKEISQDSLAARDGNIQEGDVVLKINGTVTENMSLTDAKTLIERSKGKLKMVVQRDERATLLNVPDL
Sequence of PTPN3, P26045 (P26045 505-587): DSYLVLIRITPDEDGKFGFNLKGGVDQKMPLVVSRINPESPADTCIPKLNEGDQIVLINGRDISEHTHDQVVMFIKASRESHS
Sequence of DLG1_3, Q12959 (Q12959 457-571): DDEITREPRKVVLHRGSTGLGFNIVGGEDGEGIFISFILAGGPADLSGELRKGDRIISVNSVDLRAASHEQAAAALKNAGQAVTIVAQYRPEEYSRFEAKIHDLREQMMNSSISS
Sequence of NHERF4_2, Q86UT5 (Q86UT5 220-308): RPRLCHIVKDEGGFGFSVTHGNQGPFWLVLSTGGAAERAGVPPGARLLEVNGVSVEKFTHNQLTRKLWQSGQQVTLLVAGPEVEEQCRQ
Sequence of HTRA1, Q92743 (Q92743 360-477): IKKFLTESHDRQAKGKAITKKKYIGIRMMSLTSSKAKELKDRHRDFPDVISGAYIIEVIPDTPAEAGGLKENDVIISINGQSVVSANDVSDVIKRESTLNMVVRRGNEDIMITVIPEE
Sequence of MAGI2_5, Q86UL8 (Q86UL8 915-1017): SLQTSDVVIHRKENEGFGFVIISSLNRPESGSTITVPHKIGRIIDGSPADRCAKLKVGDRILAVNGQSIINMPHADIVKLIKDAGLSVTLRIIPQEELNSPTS
Sequence of NOS1, P29475 (P29475 9-101): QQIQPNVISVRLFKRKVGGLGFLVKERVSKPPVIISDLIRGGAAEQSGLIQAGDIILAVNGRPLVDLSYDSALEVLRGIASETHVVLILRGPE

B1: HNRNPK, P61978;P61978-2 (peptide)
chain: VKQYADVEGF
For B1, the pKd entry with MAGI2_5, Q86UL8 is “below the threshold”; with TJP1_2, Q07157 it was “below the threshold”; with DLG3_1, Q92796 it was “below the threshold”; with TX1BP3, O14907 it was 3.97; with HTRA1, Q92743 it was “below the threshold”; with MPDZ_12, O75970 it was “below the threshold”. For the same molecule, the negative-log Kd (pKd) entry in the test with PDZRN3_1, Q9UPQ7 is recorded as “below the threshold”; in the test with IL16_3, Q14005 it was “below the threshold”; with MAST1, Q9Y2H9, “below the threshold”; in the test with NOS1, P29475, “below the threshold”; with NHERF4_2, Q86UT5, “below the threshold”; with NHERF3_4, Q5T2W1, “below the threshold”. In addition, the pKd with DFNB31_3, Q9P202 is 3.98; in the test with MPDZ_10, O75970 it was “below the threshold”; with LRRC7, Q96NW7, “below the threshold”; with LIN7A, O14910, “below the threshold”; in the test with APBA3_1, O96018, “below the threshold”; in the test with PICK1, Q9NRD5, “below the threshold”. Moreover, the pKd result with MPDZ_5, O75970 is “below the threshold”; with DLG1_3, Q12959 it was “below the threshold”; in the test with ARHGEF11, O15085, “below the threshold”; in the test with AHNAK1, Q09666, “below the threshold”; with PTPN3, P26045 it was 3.93.

B2: CLDN10, P78369 (peptide)
chain: SKQFDKNAYV
Take B2: the pKd result was “below the threshold” in the test with MAGI2_5, Q86UL8; 3.61 with TJP1_2, Q07157; “below the threshold” with DLG3_1, Q92796; “below the threshold” with TX1BP3, O14907; 3.97 in the test with HTRA1, Q92743; “below the threshold” in the test with MPDZ_12, O75970. Besides, the negative logarithm of the Kd (pKd) result with PDZRN3_1, Q9UPQ7 is “below the threshold”; with IL16_3, Q14005 it was “below the threshold”; with MAST1, Q9Y2H9, “below the threshold”; with NOS1, P29475 it was 3.61; with DLG2_3, Q15700, “below the threshold”; in the test with NHERF4_2, Q86UT5, “below the threshold”. In addition, the pKd entry in the test with NHERF3_4, Q5T2W1 is “below the threshold”; with DFNB31_3, Q9P202, “below the threshold”; in the test with MPDZ_10, O75970, “below the threshold”; with LRRC7, Q96NW7, “below the threshold”; with LIN7A, O14910 it was “below the threshold”; with APBA3_1, O96018, “below the threshold”. The pKd entry with PICK1, Q9NRD5 is recorded as “below the threshold”; with MPDZ_5, O75970 it was “below the threshold”; in the test with DLG1_3, Q12959, “below the threshold”; with ARHGEF11, O15085, “below the threshold”; in the test with AHNAK1, Q09666, “below the threshold”; with PTPN3, P26045, “below the threshold”.

B3: SLC9A3, P48764 (peptide)
chain: PAALPESTHM
With B3, the pKd result with MAGI2_5, Q86UL8 is recorded as “below the threshold”; with TJP1_2, Q07157, “below the threshold”; in the test with DLG3_1, Q92796, “below the threshold”; in the test with TX1BP3, O14907 it was “below the threshold”; with HTRA1, Q92743, “below the threshold”; in the test with MPDZ_12, O75970, “below the threshold”. Besides, the negative-log Kd (pKd) result with PDZRN3_1, Q9UPQ7 was “below the threshold”; with IL16_3, Q14005, “below the threshold”; with MAST1, Q9Y2H9, 4.63; with NOS1, P29475, “below the threshold”; with DLG2_3, Q15700, “below the threshold”; in the test with NHERF4_2, Q86UT5 it was “below the threshold”. The pKd with NHERF3_4, Q5T2W1 is 3.52; in the test with DFNB31_3, Q9P202, “below the threshold”; with MPDZ_10, O75970, “below the threshold”; with LRRC7, Q96NW7, “below the threshold”; with LIN7A, O14910, “below the threshold”; in the test with APBA3_1, O96018, “below the threshold”. Besides, the pKd with PICK1, Q9NRD5 was 4.11; in the test with MPDZ_5, O75970, “below the threshold”; with DLG1_3, Q12959, “below the threshold”; with ARHGEF11, O15085, “below the threshold”; with AHNAK1, Q09666 it was “below the threshold”; with PTPN3, P26045, “below the threshold”.

B4: PALLS, Q8WX93;Q8WX93-1 (peptide)
chain: NTALVESEDL
As to B4, the pKd result is “below the threshold” in the test with MAGI2_5, Q86UL8; “below the threshold” with TJP1_2, Q07157; “below the threshold” with DLG3_1, Q92796; “below the threshold” with TX1BP3, O14907; “below the threshold” with HTRA1, Q92743; “below the threshold” in the test with MPDZ_12, O75970. For the same molecule, the negative logarithm of the Kd (pKd) result in the test with PDZRN3_1, Q9UPQ7 was “below the threshold”; in the test with IL16_3, Q14005 it was “below the threshold”; in the test with MAST1, Q9Y2H9, 4.56; in the test with NOS1, P29475, “below the threshold”; in the test with DLG2_3, Q15700, “below the threshold”; in the test with NHERF3_4, Q5T2W1 it was “below the threshold”. Besides, the pKd entry with DFNB31_3, Q9P202 is listed as “below the threshold”; with MPDZ_10, O75970, “below the threshold”; in the test with LRRC7, Q96NW7, “below the threshold”; with LIN7A, O14910 it was “below the threshold”; with APBA3_1, O96018, “below the threshold”; with PICK1, Q9NRD5, “below the threshold”. Besides, the negative-log Kd (pKd) result with MPDZ_5, O75970 was “below the threshold”; with DLG1_3, Q12959, “below the threshold”; with ARHGEF11, O15085 it was 4.05; in the test with AHNAK1, Q09666, “below the threshold”; in the test with PTPN3, P26045, 4.33.

One may read the pKd as the negative decadic logarithm of the Kd, by convention in mol/L.
